Laboratory results: patent publication US20180125892A1 (published 2018)

T1: human CD20 (human, UniProt P11836 1-297)
T1 construct: whole, on cells; cell-surface antigen; also called MS4A1
T1 sequence (looked up): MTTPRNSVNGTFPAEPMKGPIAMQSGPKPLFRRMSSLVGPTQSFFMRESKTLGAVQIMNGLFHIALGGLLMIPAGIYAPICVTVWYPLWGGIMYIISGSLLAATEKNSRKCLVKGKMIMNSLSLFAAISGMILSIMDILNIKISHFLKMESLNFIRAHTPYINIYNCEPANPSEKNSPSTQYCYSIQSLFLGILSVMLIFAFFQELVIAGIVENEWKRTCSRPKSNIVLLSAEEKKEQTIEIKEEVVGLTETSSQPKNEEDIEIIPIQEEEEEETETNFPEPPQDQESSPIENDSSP


Target: T1, human CD20
Assay: worded conclusion from JNL NFAT-luciferase reporter co-culture with CD20-positive cell lines
From the text: To evaluate the functional ability of CD20 CARs to activate JNL cells, they were co-cultured with target cancer cells to read out their activation by quantifying luciferase expression. The humanized scFv-based CARs CD20-C2H1, -C2H2, -C2H3, -C2H4, -C3H1, -C3H2, -C3H3, -C3H4, -C5H1, -C5H2, -C5H3, -C5H4, -C8H1, -C8H2, -C8H3, and -C8H4, were compared to CD20-8aBBz and CD20-3, -3m, -3J, -3H5k3, and -3H5k1. The control CARs CD20-3 and CD20-8aBBz were used in all assays to compare assay variation and/or act as a control. The EGFRvIII CAR T cells (CAR 2174, Johnson et al., Science Translational Medicine 2015) were used as non-targeting control.
JNL CART cells were co-cultured with the Burkitt's lymphoma line Raji (RRID: CVCL_0511) and the diffuse large B cell lymphoma (DLBCL) lines Pfeiffer (RRID: CVCL_3326), HBL-1 (RRID: CVCL_4213) and TMD8 (RRID: CVCL_A442); K562 (RRID: CVCL_0004), a chronic myelogenous leukemia (CML) cell line, served as CD20-negative control. Co-cultures were set up in 384-well plates at effector-to-target (E:T) ratios of 4:1, 2:1, 1:1 and 0.5:1 and incubated for 24 h, after which the expression of luciferase by the activated JNL CAR T cells was quantified by britelite plus Reporter Gene Assay System (PerkinElmer, Waltham, Mass.). The amount of light emitted from each well (Luminescence) was a direct read-out of JNL activation by the respective CAR. […] Some of the humanized scFvs, which were fused to the transmembrane and signaling domains of the CARs, seem to have improved the efficacy of CARs to activate JNL T cells. These were CD20-C2H1, -C2H3, -C5H1, -C5H2, and -C8H3.

Binder	binding result
CD20-C3H2 CAR (other, CAR on cell surface; residues 1-21 = signal peptide) QVQLVQSGAEVKKPGASVKVSCKASGYTFTNYNLHWVRQAPGQGLEWMGAIYPGNYDTSYNQKFKGRVTMTADKSTSTAYMELSSLRSEDTAVYYCARVDFGHSRYWYFDVWGQGTTVTVSSGGGGSGGGGSGGGGSGGGGSDIQLTQSPSFLSASVGDRVTITCRATSSVSSMNWYQQKPGKAPKPLIHATSNLASGVPSRFSGSGSGTEYTLTISSLQPEDFATYYCQQWTFNPPTFGQGTKLEIKTTTPAPRPPTPAPTIASQPLSLRPEACRPAAGGAVHTRGLDFACDIYIWAPLAGTCGVLLLSLVITLYCKRGRKKLLYIFKQPFMRPVQTTQEEDGCSCRFPEEEEGGCELRVKFSRSADAPAYQQGQNQLYNELNLGRREEYDVLDKRRGRDPEMGGKPRRKNPQEGLYNELQKDKMAEAYSEIGMKGERRRGKGHDGLYQGLSTATKDTYDALHMQALPPR	binds
CD20-C2H3 CAR (other, CAR on cell surface; residues 1-21 = signal peptide) QVQLVQSGAEVKKPGASVKVSCKASGYTFTNYWMHWVRQAPGQGLEWMGFITPTTGYPEYNQKFKDRVTMTADKSTSTAYMELSSLRSEDTAVYYCARRKVGKGVYYALDYWGQGTTVTVSSGGGGSGGGGSGGGGSGGGGSAIRMTQSPFSLSASVGDRVTITCRASGNIHNYLAWYQQKPAKAPKLFIYNTKTLADGVPSRFSGSGSGTDYTLTISSLQPEDFATYYCQHFWSSPWTFGGGTKVEIKTTTPAPRPPTPAPTIASQPLSLRPEACRPAAGGAVHTRGLDFACDIYIWAPLAGTCGVLLLSLVITLYCKRGRKKLLYIFKQPFMRPVQTTQEEDGCSCRFPEEEEGGCELRVKFSRSADAPAYQQGQNQLYNELNLGRREEYDVLDKRRGRDPEMGGKPRRKNPQEGLYNELQKDKMAEAYSEIGMKGERRRGKGHDGLYQGLSTATKDTYDALHMQALPPR	binds

Second part, the binder after the results:

binding result	Binder
binds	CD20-C2H4 CAR (other, CAR on cell surface; residues 1-21 = signal peptide) QVQLVQSGAEVKKPGSSVKVSCKASGYTFTNYWMHWVRQAPGQGLEWMGFITPTTGYPEYNQKFKDRVTITADKSTSTAYMELSSLRSEDTAVYYCARRKVGKGVYYALDYWGQGTTVTVSSGGGGSGGGGSGGGGSGGGGSAIRMTQSPFSLSASVGDRVTITCRASGNIHNYLAWYQQKPAKAPKLFIYNTKTLADGVPSRFSGSGSGTDYTLTISSLQPEDFATYYCQHFWSSPWTFGGGTKVEIKTTTPAPRPPTPAPTIASQPLSLRPEACRPAAGGAVHTRGLDFACDIYIWAPLAGTCGVLLLSLVITLYCKRGRKKLLYIFKQPFMRPVQTTQEEDGCSCRFPEEEEGGCELRVKFSRSADAPAYQQGQNQLYNELNLGRREEYDVLDKRRGRDPEMGGKPRRKNPQEGLYNELQKDKMAEAYSEIGMKGERRRGKGHDGLYQGLSTATKDTYDALHMQALPPR
binds	CD20-C3H1 CAR (other, CAR on cell surface; residues 1-21 = signal peptide) QVQLVQSGAEVKKPGASVKVSCKASGYTFTNYNLHWVRQAPGQGLEWMGAIYPGNYDTSYNQKFKGRVTMTADKSTSTAYMELSSLRSEDTAVYYCARVDFGHSRYWYFDVWGQGTTVTVSSGGGGSGGGGSGGGGSGGGGSEIVLTQSPATLSLSPGERATLSCRATSSVSSMNWYQQKPGQAPRPLIHATSNLASGIPARFSGSGSGTDYTLTISSLEPEDAAVYYCQQWTFNPPTFGQGTKLEIKTTTPAPRPPTPAPTIASQPLSLRPEACRPAAGGAVHTRGLDFACDIYIWAPLAGTCGVLLLSLVITLYCKRGRKKLLYIFKQPFMRPVQTTQEEDGCSCRFPEEEEGGCELRVKFSRSADAPAYQQGQNQLYNELNLGRREEYDVLDKRRGRDPEMGGKPRRKNPQEGLYNELQKDKMAEAYSEIGMKGERRRGKGHDGLYQGLSTATKDTYDALHMQALPPR
